# According to publication PMC12139101, “DNA G-quadruplex structures act as functional elements in α- and β-globin enhancers”:
# B1: HS-40_G4_aWT (structured_DNA)
# DNA: TGGGGGTGGAGGTGGGACAAGGGAAAGGGGTGA
# B2: HS2_G4_bMut (ssDNA)
# DNA: CCATAATGCCAAGCTTGAGCACTGATTCCGACACTAGACCT
# B3: HS2_G4_WT (bWT) (structured_DNA)
# DNA: CCAGAAGCGGGGGTGGGGCACTGACCCCGACAGGGGCCT
# B4: HS-40_G4_aMut (ssDNA)
# DNA: TGTGTGTGGATGTGTGACAAGTGAAATGTGTGA
# Key:
# POLR2G [1] = target: T1, POLR2G (human, UniProt P62487 1-172); experiment: ELISA; apparent Kd; 100 mM K+; ELISA: oligos folded in Tris-HCl pH 7.4, 100 mM KCl; ELISA buffer 100 mM KCl, 50 mM KH2PO4 pH 7.4, 3% BSA block, 1 h (room temperature stated for coating and bl)
# POLR2G [2] = target: T1, POLR2G; experiment: ELISA; no detectable binding, up to 200 nM; 100 mM K+; ELISA: oligos folded in Tris-HCl pH 7.4, 100 mM KCl; ELISA buffer 100 mM KCl, 50 mM KH2PO4 pH 7.4, 3% BSA block, 1 h (room temperature stated for coating and bl)
Binder,Kd (POLR2G [1]),binding result (POLR2G [2])
B1,52.8 nM,
B2,,no binding
B3,48.3 nM,
B4,,no binding
